How the values were obtained:
[1] = molecular target: T1, human sodium-dependent phosphate transporter 2B (NaPi2b) (human, UniProt O95436 1-690); assay: flow cytometry on IGROV-1 cells (endogenous NaPi2b), 24 h at 4 C, anti-human IgG Fc AF647, APC-A GeoMean
T1 construct: also called hNaPi2b; Hu NaPi2b
T1 sequence: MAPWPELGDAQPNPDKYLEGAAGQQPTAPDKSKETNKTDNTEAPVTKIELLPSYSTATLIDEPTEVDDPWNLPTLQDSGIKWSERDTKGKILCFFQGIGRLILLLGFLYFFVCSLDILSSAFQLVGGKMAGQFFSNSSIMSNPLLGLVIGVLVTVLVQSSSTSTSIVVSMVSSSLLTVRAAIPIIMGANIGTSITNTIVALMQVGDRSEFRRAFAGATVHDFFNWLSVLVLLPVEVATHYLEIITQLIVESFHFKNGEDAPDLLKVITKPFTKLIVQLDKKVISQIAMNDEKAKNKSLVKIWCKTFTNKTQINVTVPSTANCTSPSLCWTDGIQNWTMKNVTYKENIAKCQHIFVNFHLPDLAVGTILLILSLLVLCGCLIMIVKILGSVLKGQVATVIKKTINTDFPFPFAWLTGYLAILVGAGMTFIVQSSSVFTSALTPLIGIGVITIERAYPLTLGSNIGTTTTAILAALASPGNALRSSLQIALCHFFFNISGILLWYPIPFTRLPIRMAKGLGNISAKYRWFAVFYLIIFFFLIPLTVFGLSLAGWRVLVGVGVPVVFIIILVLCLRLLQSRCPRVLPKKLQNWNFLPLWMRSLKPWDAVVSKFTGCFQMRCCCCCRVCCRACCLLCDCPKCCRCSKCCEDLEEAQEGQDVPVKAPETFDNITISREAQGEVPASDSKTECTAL
Procedure: Briefly, cells were seeded at 50,000 cells/well in conical-bottom 96-well plates and treated with test antibody for 24 hours at 4° C. to prevent internalization. […] Following incubation and washing, fluorescence was detected by flow cytometry on a BD LSRFortessa™ Cell Analyzer (BD Biosciences, Franklin Lake, NJ) with 1,000 minimum events collected per well.

[2] = molecular target: T2, human sodium-dependent phosphate transporter 2B (NaPi2b) (human, UniProt O95436 1-690); assay: flow cytometry on HEK293-6e cells transfected with human NaPi2b
T2 construct: Multi-pass membrane transporter; It stood on HEK293-6e cells transfected with pTT5-huNaPi2b, or endogenously on the tumour cell lines IGROV-1, OVCAR-3, HCC-78, TOV-21G and NCI-H441; also called Hu NaPi2b; hNaPi2b
T2 sequence: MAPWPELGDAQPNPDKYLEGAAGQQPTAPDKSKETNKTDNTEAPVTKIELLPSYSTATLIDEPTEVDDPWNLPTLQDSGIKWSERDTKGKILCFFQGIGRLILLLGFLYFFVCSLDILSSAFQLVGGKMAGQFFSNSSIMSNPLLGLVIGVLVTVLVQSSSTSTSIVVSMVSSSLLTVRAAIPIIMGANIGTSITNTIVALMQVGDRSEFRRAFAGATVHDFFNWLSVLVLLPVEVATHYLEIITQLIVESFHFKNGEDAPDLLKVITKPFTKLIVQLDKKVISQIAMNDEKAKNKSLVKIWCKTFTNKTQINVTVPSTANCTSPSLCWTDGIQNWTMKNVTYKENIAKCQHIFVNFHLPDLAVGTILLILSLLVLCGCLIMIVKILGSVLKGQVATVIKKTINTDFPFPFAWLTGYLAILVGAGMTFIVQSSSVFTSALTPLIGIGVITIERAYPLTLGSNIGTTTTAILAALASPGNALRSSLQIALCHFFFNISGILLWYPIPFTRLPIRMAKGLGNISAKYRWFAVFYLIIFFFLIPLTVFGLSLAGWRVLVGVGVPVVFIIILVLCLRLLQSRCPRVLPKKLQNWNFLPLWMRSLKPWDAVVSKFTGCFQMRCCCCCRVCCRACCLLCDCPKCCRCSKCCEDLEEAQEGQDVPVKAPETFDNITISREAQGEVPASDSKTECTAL
Procedure: Following transfection, cells were seeded at 50,000 cells/well in conical-bottom 96-well plates and treated with test antibody or antibody-drug conjugate for 24 hours at 4° C. to prevent internalization. […] Following incubation and washing, fluorescence was detected by flow cytometry on a BD LSRFortessa™ Cell Analyzer (BD Biosciences, Franklin Lake, NJ) with 1,000 minimum events collected per well.

[3] = molecular target: T1, human sodium-dependent phosphate …; assay: flow cytometry, IGROV-1, HCC-78 and H441 cells

B1: v18992 (MX35)-DL2 antibody-drug conjugate (antibody, human IgG1, kappa)
heavy 1: GQVQLVQSGAEVVKPGASVKMSCKASGYTFTGYNIHWVKQAPGQGLEWIGAIYPGNGDTSYKQKFRGRATLTADTSTSTVYMELSSLRSEDSAVYYCARGETARATFAYWGQGTLVTVSSASTKGPSVFPLAPSSKSTSGGTAALGCLVKDYFPEPVTVSWNSGALTSGVHTFPAVLQSSGLYSLSSVVTVPSSSLGTQTYICNVNHKPSNTKVDKKVEPKSCDKTHTCPPCPAPELLGGPSVFLFPPKPKDTLMISRTPEVTCVVVDVSHEDPEVKFNWYVDGVEVHNAKTKPREEQYNSTYRVVSVLTVLHQDWLNGKEYKCKVSNKALPAPIEKTISKAKGQPREPQVYVYPPSRDELTKNQVSLTCLVKGFYPSDIAVEWESNGQPENNYKTTPPVLDSDGSFALVSKLTVDKSRWQQGNVFSCSVMHEALHNHYTQKSLSLSPG
heavy 2: not shown
light: GDIQMTQSPSSLSASVGDRVTITCSASQDIGNFLNWYQQKPGKTVKVLIYYTSSLYSGVPSRFSGSGSGTDYTLTISSLQPEDFATYYCQQYSKLPLTFGQGTKLELKRTVAAPSVFIFPPSDEQLKSGTASVVCLLNNFYPREAKVQWKVDNALQSGNSQESVTEQDSKDSTYSLSSTLTLSKADYEKHKVYACEVTHQGLSSPVTKSFNRGEC
modifications: maleimide functionalized auristatin drug linker (DL2); sites and DAR not stated
notes: also called MX35-DL2 ADC
EC50 (read off the curve) [1]: ~1 nM

B2: humanized anti-NaPi2b antibody variant v38591 (antibody, human IgG1, kappa)
heavy: not shown
light: DVQMTQSPSSLSASVGDRVTITCRASQDVYSYLNWYQQKPGKAVKLLIYYTSRLQSGVPSRFSGSGSGTDYTLTISSLQPEDFATYYCQQYNIFPWTFGQGTKLEIKRTVAAPSVFIFPPSDEQLKSGTASVVCLLNNFYPREAKVQWKVDNALQSGNSQESVTEQDSKDSTYSLSSTLTLSKADYEKHKVYACEVTHQGLSSPVTKSFNRGEC
notes: Human IgG1/kappa full-size antibody; It is identical to v29456 except that the heavy chains include a C-terminal lysine; also called v38591 (H1L2)
Bmax [2]: 65

B3: v21995 (palivizumab), anti-RSV negative control antibody (antibody, human IgG1, kappa, V domains shown)
VH: QVTLRESGPALVKPTQTLTLTCTFSGFSLSTSGMSVGWIRQPPGKALEWLADIWWDDKKDYNPSLKSRLTISKDTSKNQVVLKVTNMDPADTATYYCARSMITNWYFDVWGAGTTVTVSS
VL: DIQMTQSPSTLSASVGDRVTITCKSQLSVGYMHWYQQKPGKAPKLLIYDTSKLASGVPSRFSGSGSGTEFTLTISSLQPDDFATYYCFQGSGYPFTFGGGTKLEIKR
binding result [3]: no binding

Source: patent publication US20250235548A1 (Zymeworks, published 2025)
